Experimental findings from US20150344570A1 (published 2015) are described below.

Experiment [1] deals with T1, FcγRIIIa (human, UniProt P08637 17-208).
T1 construct: extracellular domain; also called FcgRIIIa; 3a
Briefly: SPR (Biacore), relative binding. Background: SPR reads the build-up and loss of mass on a sensor chip optically.

The target of another experiment is T2, FcγRIIb (human, UniProt P31994 43-217).
T2 construct: extracellular domain; also called FcgRIIb; 2b
T2 sequence (looked up): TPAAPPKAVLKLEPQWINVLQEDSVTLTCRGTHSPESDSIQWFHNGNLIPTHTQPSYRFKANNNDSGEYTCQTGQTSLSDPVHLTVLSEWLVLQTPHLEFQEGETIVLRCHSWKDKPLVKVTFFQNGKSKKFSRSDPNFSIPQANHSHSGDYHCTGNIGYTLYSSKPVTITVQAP
The experiment is described as follows: SPR (Biacore), relative binding.

For experiment [2], the target named is T1, FcγRIIIa. Briefly: SPR; He/Con_3a divided by He/Con_2b (FcγRIIIa against FcγRIIb).

T1 sequence (P08637 17-208): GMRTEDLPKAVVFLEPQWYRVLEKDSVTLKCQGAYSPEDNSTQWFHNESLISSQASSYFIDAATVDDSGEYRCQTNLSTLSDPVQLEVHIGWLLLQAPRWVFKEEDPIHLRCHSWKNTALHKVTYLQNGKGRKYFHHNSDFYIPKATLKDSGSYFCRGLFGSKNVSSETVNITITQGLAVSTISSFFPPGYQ

B1: GpH7-A5/GpH7-B3 variant D265_16H/GpL16-k0 (antibody, human IgG1, kappa)
heavy 1: not shown
heavy 2: not shown
light: DIVMTQSPLSLPVTPGEPASISCQASESLVHSNRNTYLHWYLQKPGQSPQLLIYKVSNRFSGVPDRFSGSGSGTDFTLKISRVEAEDVGVYYCSQNTHVPPTFGQGTKVEIERTVAAPSVFIFPPSDEQLKSGTASVVCLLNNFYPREAKVQWKVDNALQSGNSQESVTEQDSKDSTYSLSSTLTLSKADYEKHKVYACEVTHQGLSSPVTKSFNRGEC
notes: mutation in the GpH7-B3 chain only; also called He Ab
Regarding B1, in the experiment with FcγRIIIa [1], the He/Con_3a was 13.6 % of GpH7-A5/GpH7-B3/GpL16-k0. The He/Con_2b with FcγRIIb was 38.3 % of GpH7-A5/GpH7-B3/GpL16-k0. In addition, in the experiment with FcγRIIIa [2], the “He_3a/2b (IIIa/IIb)” value came to 0.35 ratio.

B2: GpH7-A5/GpH7-B3 variant D265_08L/GpL16-k0 (antibody, human IgG1, kappa)
heavy 1: not shown
heavy 2: not shown
light: DIVMTQSPLSLPVTPGEPASISCQASESLVHSNRNTYLHWYLQKPGQSPQLLIYKVSNRFSGVPDRFSGSGSGTDFTLKISRVEAEDVGVYYCSQNTHVPPTFGQGTKVEIERTVAAPSVFIFPPSDEQLKSGTASVVCLLNNFYPREAKVQWKVDNALQSGNSQESVTEQDSKDSTYSLSSTLTLSKADYEKHKVYACEVTHQGLSSPVTKSFNRGEC
notes: as for B1
Consider B2, for which, in the experiment with FcγRIIIa [1], the He/Con_3a was 0 % of GpH7-A5/GpH7-B3/GpL16-k0. For the same molecule, the He/Con_2b with FcγRIIb is 4.6 % of GpH7-A5/GpH7-B3/GpL16-k0. For the same molecule, the “He_3a/2b (IIIa/IIb)” value in the experiment with FcγRIIIa [2] turned out to be 0 ratio.

B3: GpH7-A5/GpH7-B3 variant D265_14T/GpL16-k0 (antibody, human IgG1, kappa)
heavy 1: not shown
heavy 2: not shown
light: DIVMTQSPLSLPVTPGEPASISCQASESLVHSNRNTYLHWYLQKPGQSPQLLIYKVSNRFSGVPDRFSGSGSGTDFTLKISRVEAEDVGVYYCSQNTHVPPTFGQGTKVEIERTVAAPSVFIFPPSDEQLKSGTASVVCLLNNFYPREAKVQWKVDNALQSGNSQESVTEQDSKDSTYSLSSTLTLSKADYEKHKVYACEVTHQGLSSPVTKSFNRGEC
notes: as for B1
Take B3: the He/Con_3a in the experiment with FcγRIIIa [1] is 4.3 % of GpH7-A5/GpH7-B3/GpL16-k0. The He/Con_2b with FcγRIIb was 16 % of GpH7-A5/GpH7-B3/GpL16-k0. In addition, the “He_3a/2b (IIIa/IIb)” value with FcγRIIIa [2] was determined as 0.27 ratio.

B4: GpH7-A5/GpH7-B3 variant D265_07I/GpL16-k0 (antibody, human IgG1, kappa)
heavy 1: not shown
heavy 2: not shown
light: DIVMTQSPLSLPVTPGEPASISCQASESLVHSNRNTYLHWYLQKPGQSPQLLIYKVSNRFSGVPDRFSGSGSGTDFTLKISRVEAEDVGVYYCSQNTHVPPTFGQGTKVEIERTVAAPSVFIFPPSDEQLKSGTASVVCLLNNFYPREAKVQWKVDNALQSGNSQESVTEQDSKDSTYSLSSTLTLSKADYEKHKVYACEVTHQGLSSPVTKSFNRGEC
notes: as for B1
Turning to B4, the He/Con_3a in the experiment with FcγRIIIa [1] is -0.8 % of GpH7-A5/GpH7-B3/GpL16-k0. Further, the He/Con_2b with FcγRIIb was 1.3 % of GpH7-A5/GpH7-B3/GpL16-k0. Also, the “He_3a/2b (IIIa/IIb)” value with FcγRIIIa [2] was -0.61 ratio.

B5: GpH7-A5/GpH7-B3 variant D265_06M/GpL16-k0 (antibody, human IgG1, kappa)
heavy 1: not shown
heavy 2: not shown
light: DIVMTQSPLSLPVTPGEPASISCQASESLVHSNRNTYLHWYLQKPGQSPQLLIYKVSNRFSGVPDRFSGSGSGTDFTLKISRVEAEDVGVYYCSQNTHVPPTFGQGTKVEIERTVAAPSVFIFPPSDEQLKSGTASVVCLLNNFYPREAKVQWKVDNALQSGNSQESVTEQDSKDSTYSLSSTLTLSKADYEKHKVYACEVTHQGLSSPVTKSFNRGEC
notes: as for B1
In the case of B5, the He/Con_3a in the experiment with FcγRIIIa [1] was 2.6 % of GpH7-A5/GpH7-B3/GpL16-k0. Moreover, the He/Con_2b with FcγRIIb is 10 % of GpH7-A5/GpH7-B3/GpL16-k0. Besides, the “He_3a/2b (IIIa/IIb)” value with FcγRIIIa [2] turned out to be 0.26 ratio.

B6: GpH7-A5/GpH7-B3 variant D265_13S/GpL16-k0 (antibody, human IgG1, kappa)
heavy 1: not shown
heavy 2: not shown
light: DIVMTQSPLSLPVTPGEPASISCQASESLVHSNRNTYLHWYLQKPGQSPQLLIYKVSNRFSGVPDRFSGSGSGTDFTLKISRVEAEDVGVYYCSQNTHVPPTFGQGTKVEIERTVAAPSVFIFPPSDEQLKSGTASVVCLLNNFYPREAKVQWKVDNALQSGNSQESVTEQDSKDSTYSLSSTLTLSKADYEKHKVYACEVTHQGLSSPVTKSFNRGEC
notes: as for B1
On to B6, for which, in the experiment with FcγRIIIa [1], the He/Con_3a is 3.9 % of GpH7-A5/GpH7-B3/GpL16-k0. Also, the He/Con_2b with FcγRIIb was 11.3 % of GpH7-A5/GpH7-B3/GpL16-k0. Besides, in the experiment with FcγRIIIa [2], the “He_3a/2b (IIIa/IIb)” value was 0.35 ratio.

B7: GpH7-A5/GpH7-B3 variant D265_04F/GpL16-k0 (antibody, human IgG1, kappa)
heavy 1: not shown
heavy 2: not shown
light: DIVMTQSPLSLPVTPGEPASISCQASESLVHSNRNTYLHWYLQKPGQSPQLLIYKVSNRFSGVPDRFSGSGSGTDFTLKISRVEAEDVGVYYCSQNTHVPPTFGQGTKVEIERTVAAPSVFIFPPSDEQLKSGTASVVCLLNNFYPREAKVQWKVDNALQSGNSQESVTEQDSKDSTYSLSSTLTLSKADYEKHKVYACEVTHQGLSSPVTKSFNRGEC
notes: as for B1
Take B7: the He/Con_3a with FcγRIIIa [1] is 0 % of GpH7-A5/GpH7-B3/GpL16-k0. Moreover, the He/Con_2b with FcγRIIb was 3.2 % of GpH7-A5/GpH7-B3/GpL16-k0. The “He_3a/2b (IIIa/IIb)” value with FcγRIIIa [2] was 0 ratio.

B8: GpH7-A5/GpH7-B3 variant D265_20W/GpL16-k0 (antibody, human IgG1, kappa)
heavy 1: not shown
heavy 2: not shown
light: DIVMTQSPLSLPVTPGEPASISCQASESLVHSNRNTYLHWYLQKPGQSPQLLIYKVSNRFSGVPDRFSGSGSGTDFTLKISRVEAEDVGVYYCSQNTHVPPTFGQGTKVEIERTVAAPSVFIFPPSDEQLKSGTASVVCLLNNFYPREAKVQWKVDNALQSGNSQESVTEQDSKDSTYSLSSTLTLSKADYEKHKVYACEVTHQGLSSPVTKSFNRGEC
notes: as for B1
Take B8: the He/Con_3a in the experiment with FcγRIIIa [1] was -0.5 % of GpH7-A5/GpH7-B3/GpL16-k0. In addition, in the experiment with FcγRIIb, the He/Con_2b was 1.1 % of GpH7-A5/GpH7-B3/GpL16-k0. For the same molecule, the “He_3a/2b (IIIa/IIb)” value with FcγRIIIa [2] was -0.48 ratio.
